Experimental data from paper PMC12000434 (2025).

B1: FLAG-NDP52^WT [human] / HA-LC3C [human] (parent complex)
chain 1: MEETIKDPPTSAVLLDHCHFSQVIFNSVEKFYIPGGDVTCHYTFTQHFIPRRKDWIGIFRVGWKTTREYYTFMWVTLPIDLNNKSAKQQEVQFKAYYLPKDDEYYQFCYVDEDGVVRGASIPFQFRPENEEDILVVTTQGEVEEIEQHNKELCKENQELKDSCISLQKQNSDMQAELQKKQEELETLQSINKKLELKVKEQKDYWETELLQLKEQNQKMSSENEKMGIRVDQLQAQLSTQEKEMEKLVQGDQDKTEQLEQLKKENDHLFLSLTEQRKDQKKLEQTVEQMKQNETTAMKKQQELMDENFDLSKRLSENEIICNALQRQKERLEGENDLLKRENSRLLSYMGLDFNSLPYQVPTSDEGGARQNPGLAYGNPYSGIQESSSPSPLSIKKCPICKADDICDHTLEQQQMQPLCFNCPICDKIFPATEKQIFEDHVFCHSL
chain 2: MPPPQKIPSVRPFKQRKSLAIRQEEVAGIRAKFPNKIPVVVERYPRETFLPPLDKTKFLVPQELTMTQFLSIIRSRMVLRATEAFYLLVNNKSLVSMSATMAEIYRDYKDEDGFVYMTYASQETFG

Variants of: B1
Assay: co-immunoprecipitation (anti-HA beads), Western blot densitometry; lysates of SH-SY5Y cells; three independent experiments; parent: 100; read off a plot

| Variant | percent of parent |
| --- | --- |
| chain 1 MEETIKDPPTSAVLLDHCHFSQVIFNSVEKFYIPGGDVTCHYTFTQHFIPRRKDWIGIFRVGWKTTREYYTFMWVTLPIDLNNKSAKQQEVQFKAYYLPKDDEYYQFCYVDEDGVVRGASIPFQFRPENEEDILVSTTQEEVEEIEQHNKELCKENQELKDSCISLQKQNSDMQAELQKKQEELETLQSINKKLELKVKEQKDYWETELLQLKEQNQKMSSENEKMGIRVDQLQAQLSTQEKEMEKLVQGDQDKTEQLEQLKKENDHLFLSLTEQRKDQKKLEQTVEQMKQNETTAMKKQQELMDENFDLSKRLSENEIICNALQRQKERLEGENDLLKRENSRLLSYMGLDFNSLPYQVPTSDEGGARQNPGLAYGNPYSGIQESSSPSPLSIKKCPICKADDICDHTLEQQQMQPLCFNCPICDKIFPATEKQIFEDHVFCHSL [chain 1 V136S, chain 1 G140E] | ~53 % of WT |
| chain 1 MEETIKDPPTSAVLLDHCHFSQVIFNSVEKFYIPGGDVTCHYTFTQHFIPRRKDWIGIFRVGWKTTREYYTFMWVTLPIDLNNKSAKQQEVQFKAYYLPKDDEYYQFCYVDEDGVVRGASIPFQFRPENEEDILVSTTQGEVEEIEQHNKELCKENQELKDSCISLQKQNSDMQAELQKKQEELETLQSINKKLELKVKEQKDYWETELLQLKEQNQKMSSENEKMGIRVDQLQAQLSTQEKEMEKLVQGDQDKTEQLEQLKKENDHLFLSLTEQRKDQKKLEQTVEQMKQNETTAMKKQQELMDENFDLSKRLSENEIICNALQRQKERLEGENDLLKRENSRLLSYMGLDFNSLPYQVPTSDEGGARQNPGLAYGNPYSGIQESSSPSPLSIKKCPICKADDICDHTLEQQQMQPLCFNCPICDKIFPATEKQIFEDHVFCHSL [chain 1 V136S] | ~53 % of WT |
| chain 1 MEETIKDPPTSAVLLDHCHFSQVIFNSVEKFYIPGGDVTCHYTFTQHFIPRRKDWIGIFRVGWKTTREYYTFMWVTLPIDLNNKSAKQQEVQFKAYYLPKDDEYYQFCYVDEDGVVRGASIPFQFRPENEEDILVVTTQEEVEEIEQHNKELCKENQELKDSCISLQKQNSDMQAELQKKQEELETLQSINKKLELKVKEQKDYWETELLQLKEQNQKMSSENEKMGIRVDQLQAQLSTQEKEMEKLVQGDQDKTEQLEQLKKENDHLFLSLTEQRKDQKKLEQTVEQMKQNETTAMKKQQELMDENFDLSKRLSENEIICNALQRQKERLEGENDLLKRENSRLLSYMGLDFNSLPYQVPTSDEGGARQNPGLAYGNPYSGIQESSSPSPLSIKKCPICKADDICDHTLEQQQMQPLCFNCPICDKIFPATEKQIFEDHVFCHSL [chain 1 G140E] | ~190 % of WT |

Variants of: B1
Assay: co-immunoprecipitation, Western blot densitometry; lysates of SH-SY5Y cells; three independent experiments; blot labelled IP:HA(LC3C); parent: 100; read off a plot

| Variant | percent of parent |
| --- | --- |
| chain 1 MEETIKDPPTSAVLLDHCHFSQVIFNSVEKFYIPGGDVTCHYTFTQHFIPRRKDWIGIFRVGWKTTREYYTFMWVTLPIDLNNKSAKQQEVQFKAYYLPKDDEYYQFCYVDEDGVVRGASIPFQFRPENEEDILVVTTQGEVEEIEQHNKELCKENQELKDSCISLQKQNSDMQAELQKKQEELETLQSINKKLELKVKEQKAAAATELLQLKEQNQKMSSENEKMGIRVDQLQAQLSTQEKEMEKLVQGDQDKTEQLEQLKKENDHLFLSLTEQRKDQKKLEQTVEQMKQNETTAMKKQQELMDENFDLSKRLSENEIICNALQRQKERLEGENDLLKRENSRLLSYMGLDFNSLPYQVPTSDEGGARQNPGLAYGNPYSGIQESSSPSPLSIKKCPICKADDICDHTLEQQQMQPLCFNCPICDKIFPATEKQIFEDHVFCHSL [chain 1 D203A, chain 1 Y204A, chain 1 W205A, chain 1 E206A] | ~130 % of WT |
| chain 1 MEETIKDPPTSAVLLDHCHFSQVIFNSVEKFYIPGGDVTCHYTFTQHFIPRRKDWIGIFRVGWKTTREYYTFMWVTLPIDLNNKSAKQQEVQFKAYYLPKDDEYYQFCYVDEDGVVRGASIPFQFRPENEEDILVVTTQEEVEEIEQHNKELCKENQELKDSCISLQKQNSDMQAELQKKQEELETLQSINKKLELKVKEQKDYWETELLQLKEQNQKMSSENEKMGIRVDQLQAQLSTQEKEMEKLVQGDQDKTEQLEQLKKENDHLFLSLTEQRKDQKKLEQTVEQMKQNETTAMKKQQELMDENFDLSKRLSENEIICNALQRQKERLEGENDLLKRENSRLLSYMGLDFNSLPYQVPTSDEGGARQNPGLAYGNPYSGIQESSSPSPLSIKKCPICKADDICDHTLEQQQMQPLCFNCPICDKIFPATEKQIFEDHVFCHSL [chain 1 G140E] | ~240 % of WT |
| chain 1 MEETIKDPPTSAVLLDHCHFSQVIFNSVEKFYIPGGDVTCHYTFTQHFIPRRKDWIGIFRVGWKTTREYYTFMWVTLPIDLNNKSAKQQEVQFKAYYLPKDDEYYQFCYVDEDGVVRGASIPFQFRPENEEDILVVTTQEEVEEIEQHNKELCKENQELKDSCISLQKQNSDMQAELQKKQEELETLQSINKKLELKVKEQKAAAATELLQLKEQNQKMSSENEKMGIRVDQLQAQLSTQEKEMEKLVQGDQDKTEQLEQLKKENDHLFLSLTEQRKDQKKLEQTVEQMKQNETTAMKKQQELMDENFDLSKRLSENEIICNALQRQKERLEGENDLLKRENSRLLSYMGLDFNSLPYQVPTSDEGGARQNPGLAYGNPYSGIQESSSPSPLSIKKCPICKADDICDHTLEQQQMQPLCFNCPICDKIFPATEKQIFEDHVFCHSL [chain 1 G140E, chain 1 D203A, chain 1 Y204A, chain 1 W205A, chain 1 E206A] | ~230 % of WT |
